According to publication PMC3058826 (Nature, 2010):

Target: T1, TRIM24 PHD-Bromo C840W (human, UniProt O15164 824-1006, C840W)
T1 sequence: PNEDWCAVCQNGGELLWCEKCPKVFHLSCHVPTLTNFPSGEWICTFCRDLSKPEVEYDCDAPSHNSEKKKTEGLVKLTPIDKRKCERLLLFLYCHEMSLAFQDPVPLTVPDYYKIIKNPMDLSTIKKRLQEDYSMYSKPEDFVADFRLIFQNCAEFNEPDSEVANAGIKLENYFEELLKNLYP
Test: ITC

Kd: > 400 µM
Binder: ARTKQTARKSTGGKA [H3(1–15)K4 peptide]
